Here are results for three substances from PMC6504924.

Test [1] addresses NanoLuc:VEGFR2 fusion on cells (UniProt P35968). Description: FRET or BRET; saturation binding on live HEK293T cells transiently expressing a NanoLuc:RTK fusion; increasing concentrations of DY605-labeled growth factor with and without excess (0.5 µM) unlabeled equivalent; 1.5 h at room temperature, OptiMEM; apparent affinities (EC50). On the technique in general: In BRET a luciferase serves as donor, and the signal depends on an acceptor being close.

The target is the same in test [2].

Chain of NanoLuc:VEGFR2 fusion on cells (P35968 20-1356): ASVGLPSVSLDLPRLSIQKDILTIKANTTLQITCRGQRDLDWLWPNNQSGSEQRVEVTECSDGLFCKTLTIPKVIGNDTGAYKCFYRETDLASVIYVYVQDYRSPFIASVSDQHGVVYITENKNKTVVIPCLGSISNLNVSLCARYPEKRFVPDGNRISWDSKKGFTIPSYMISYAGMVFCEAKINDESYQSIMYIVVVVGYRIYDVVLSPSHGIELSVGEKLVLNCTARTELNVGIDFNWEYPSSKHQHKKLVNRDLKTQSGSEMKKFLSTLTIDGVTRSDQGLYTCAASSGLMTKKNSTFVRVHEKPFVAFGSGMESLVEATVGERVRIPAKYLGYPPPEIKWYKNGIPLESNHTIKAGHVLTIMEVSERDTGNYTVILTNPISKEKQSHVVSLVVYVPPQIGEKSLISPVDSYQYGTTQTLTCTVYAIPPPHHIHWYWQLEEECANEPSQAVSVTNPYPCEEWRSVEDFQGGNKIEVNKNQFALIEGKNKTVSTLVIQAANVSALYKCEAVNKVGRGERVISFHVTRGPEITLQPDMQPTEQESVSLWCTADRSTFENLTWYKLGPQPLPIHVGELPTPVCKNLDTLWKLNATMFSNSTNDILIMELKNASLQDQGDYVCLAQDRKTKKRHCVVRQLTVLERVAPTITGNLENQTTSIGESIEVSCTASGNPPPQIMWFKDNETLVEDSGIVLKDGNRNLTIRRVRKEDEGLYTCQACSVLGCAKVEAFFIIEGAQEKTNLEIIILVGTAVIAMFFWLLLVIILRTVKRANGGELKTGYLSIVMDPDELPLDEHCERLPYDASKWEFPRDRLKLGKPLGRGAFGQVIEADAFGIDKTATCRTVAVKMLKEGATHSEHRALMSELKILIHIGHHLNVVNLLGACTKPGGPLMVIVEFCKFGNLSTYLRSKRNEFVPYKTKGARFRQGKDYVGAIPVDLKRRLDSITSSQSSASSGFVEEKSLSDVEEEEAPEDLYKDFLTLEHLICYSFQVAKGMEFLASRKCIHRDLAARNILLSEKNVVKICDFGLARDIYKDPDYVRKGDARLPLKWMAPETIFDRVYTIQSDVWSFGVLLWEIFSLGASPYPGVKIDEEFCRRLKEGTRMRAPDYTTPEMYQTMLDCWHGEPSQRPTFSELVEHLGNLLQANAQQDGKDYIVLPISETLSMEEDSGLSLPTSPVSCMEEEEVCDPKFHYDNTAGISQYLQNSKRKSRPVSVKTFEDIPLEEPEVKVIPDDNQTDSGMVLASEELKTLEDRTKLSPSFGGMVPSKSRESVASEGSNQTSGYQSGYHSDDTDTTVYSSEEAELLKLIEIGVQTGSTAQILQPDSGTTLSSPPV

One may read the EC50 as the concentration that produces a half-maximal response. As for “CBT-labeled VEGF165a homodimer (vascular endothelial growth factor isoform VEGF165a labeled with DY605-PEG-CBT on the N-terminal cysteine) (ligand)”, in test [1], the EC50 turned out to be 0.045 nM. In the case of “VEGF165a homodimer labeled with 2-fold molar excess of DY605-NHS-ester (ligand)”, in test [1], the EC50 turned out to be 1.2 nM. In test [2], this substance yielded an NFAT-luciferase reporter, 6 h stimulation; EC50 as fold against the unlabeled counterpart (printed as 'fold lower', weaker response) greater than 120 fold.

As for “VEGF165a homodimer labeled with 5-fold molar excess of DY605-NHS-ester (ligand)”, the 50% effective concentration (EC50) in test [1] was determined as 12 nM. Moreover, the NFAT-luciferase reporter, 6 h stimulation; EC50 as fold against the unlabeled counterpart (printed as 'fold lower', weaker response) in test [2] was greater than 120 fold.
